One block for each molecule: values may come before it.
Target: CXCR4 (Homo sapiens, UniProt P61073)
Assay: [125I]-238D2 competition binding on membranes from HEK293T cells transiently expressing CXCR4
Procedure: HEK293T cells were maintained at 37° C. in a humidified 5% CO2, 95% air atmosphere in Dulbecco's modified Eagle's medium (DMEM) containing 2 mM L-glutamine, 50 IU/ml penicillin, 50 μg/ml streptomycin, and 10% (v/v) fetal calf serum. Jurkat cells were cultured in a humidified 5% CO2, 95% air atmosphere in a 1:1 mixture of Dulbecco's modified Eagle's medium (DMEM) and Ham's F12 medium containing 2 mM L-glutamine, 50 IU/ml penicillin, 50 μg/ml streptomycin, and 10% (v/v) fetal calf serum. […] [^125 I]-Labelling— Radiolabeling of Nanobodies with ^125I was performed using the Iodo-gen method (Pierce, Rockford, Ill.) according to the manufacturer's protocol. ^125I-labeled Nanobodies was separated from free iodine (>99%) using a Sephadex G-25 gel filtration column (Amersham Biosciences, Piscataway, N.J.). […] Competition Binding Assays— Membranes from HEK293T cells transiently expressing CXCR3 or CXCR4 were prepared 48 h after transfection as follows. Cells were washed and scraped from the cell culture dishes with ice-cold PBS containing 1 mm EDTA. The scraped cells were pelleted at 1500×g for 10 min at 4° C. The pellet was washed and then resuspended in ice-cold membrane buffer (15 mM Tris, pH 7.5, 1 mM EGTA, 0.3 mM EDTA, and 2 mM MgCl2). The cell suspension was homogenized by 10 strokes at 1200 rpm using a Teflon-glass homogenizer and rotor and further subjected to three freeze-thaw cycles using liquid nitrogen. Membranes were separated by centrifugation at 40,000 g for 25 min at 4° C. The membrane pellet was washed and resuspended in ice-cold Tris-sucrose buffer (20 mM Tris, pH 7.4, and 250 mM sucrose) and frozen in liquid nitrogen. The total protein was determined using a Bradford assay (Bio-Rad). […] Membranes were then harvested over polyethylenimine (0.5%)-treated Whatman GF/C filter plates and washed three times with ice cold binding buffer containing 500 mM NaCl. Plates were counted by liquid scintillation. Inositol Phosphate Accumulation Assay— 24 hours post transfection with pcDNA3.1-CXCR4 and pcDNA1-HA-mG {alpha} qi5 (see Verzijl et al, 2008 supra), 250.000 cells were seeded into 24-wells plates and labelled overnight using inositol-free minimal essential medium supplemented with 1 μCi myo-[2-^3H]-inositol. The next day, the cells were washed once to remove not incorporated myo-[2-^3H]-inositol. […] In agonist experiments, the cells were directly stimulated with test compounds and LiCl (10 mM) in assay buffer for 2 h at 37° C. The stimulation was stopped by aspirating the stimulation medium and adding ice-cold 10 mM formic acid. The accumulated inositol phosphates were isolated by anion exchange chromatography and counted by liquid scintillation. CRE Reporter Gene Assay— HEK239T cells were transfected with pCRE/β-galactosidase (Chen W, Shields T S, Stork P J S, Cone R D (1995) Anal Biochem 226:349-354) and plasmids (pcDEF3 or pcDNA3.1) encoding the indicated receptors. 40,000 transfected cells per well were seeded into 96 well plates and grown in DMEM supplemented with 10% fetal calf serum. The medium was replaced 32 h after transfection by serum-free DMEM supplemented with 0.5% bovine serum albumin and ligands as indicated. […] The β-galactosidase activity was determined by the measurement of absorption at 420 nm with a PowerwaveX340 plate reader (Bio-Tek Instruments Inc., Winooski, Vt.) after incubation with the assay buffer when the OD420 value for forskolin (3 μM) controls reached 0.4-0.6. Chemotaxis Assay— The chemotactic responsiveness of Jurkat 3D cells was assessed using ChemoTx™ plates (Receptor Technologies Ltd., Oxon, UK) in which a upper cell-containing compartment is separated from a lower chemoattractant-containing compartment by a polyvinylpyrollidone-free polycarbonate filter with 5-μm pores. Cells were harvested, washed and resuspended in RPMI containing 0.5% bovine serum albumin and then loaded to 150,000 cells per well in a volume of 25 μl into the upper compartment of the chemotaxis chamber.

[1] = membranes from HEK293T cells transiently expressing CXCR4, mean ± S.E.M.

Sequence of CXCR4 (P61073 whole entry): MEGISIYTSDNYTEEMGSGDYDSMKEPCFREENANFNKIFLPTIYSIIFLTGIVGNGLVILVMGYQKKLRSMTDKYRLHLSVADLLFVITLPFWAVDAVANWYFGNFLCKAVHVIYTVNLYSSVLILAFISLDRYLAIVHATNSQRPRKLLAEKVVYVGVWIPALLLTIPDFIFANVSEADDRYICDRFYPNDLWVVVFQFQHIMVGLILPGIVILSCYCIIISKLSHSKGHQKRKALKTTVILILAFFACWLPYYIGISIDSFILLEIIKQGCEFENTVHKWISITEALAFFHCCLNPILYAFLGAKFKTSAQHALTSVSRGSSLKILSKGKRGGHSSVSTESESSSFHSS

displacement of [125I]-238D2 from CXCR4 ([125I]-238D2 3 nM): full displacement | Displacem. (%) of [125I]-238D2 (maximal displacement) [1]: 101 ± 1%
B1: 238D4: Nanobody (VHH) raised against human CXCR4, SEQ ID NO: 239 (protein)
VHH: EVQLMESGGGLVQAGGSLRLSCAASGRTFNNYAMGWFRRAPGKEREFVAAITRSGVRSGVSAIYGDSVKDRFTISRDNAKNTLYLQMNSLKPEDTAVYTCAASAIGSGALRRFEYDYSGQGTQVTVSS
modifications: Nanobody, Nanobody constructs or fragments thereof

Displacem. (%) of [125I]-238D2 (maximal displacement) [1]: 97 ± 6% | pKi, [125I]-238D2 [1]: 8.41 ± 0.11
B2: 238D2: Nanobody (VHH) raised against human CXCR4, SEQ ID NO: 238 (protein)
VHH: EVQLVESGGGLVQTGGSLRLSCAASGFTFSSYAMSWVRQAPGKGLEWVSGIKSSGDSTRYAGSVKGRFTISRDNAKNMLYLQMYSLKPEDTAVYYCAKSRVSRTGLYTYDNRGQGTQVTVSS
modifications: Nanobody, Nanobody constructs or fragments thereof
